Results as given in publication PMC9254107, “The Toxoplasma glucan phosphatase TgLaforin utilizes a distinct functional mechanism that can be exploited by therapeutic inhibitors” (The Journal of Biological Chemistry, 2022).

Target: the molecule itself
Experiment: SEC-MALS; Superdex 200 10/300; 500 ul of 2 mg/ml protein loaded, 0.5 ml/min; purification buffer of full-length TgLaforin (50 mM Hepes, 100 mM NaCl, 15 mM imidazole, 2 mM DTT, pH 8.0)

B1: TgLaforin (Toxoplasma gondii laforin, glucan phosphatase), full length (enzyme, UniProt S8F2K7 1-523, looked up)
chain: MRVRFSVTAFVPPNAQLGVVGSAPFLGEWKLEHCVPLMPYSAPHPQGLEPSLWFRDIDLDPASCPNDTNDVHSTAAVSASCSADRRRCDLSRQSPHCFPSARSASPYMVEVSRGDCPFAVELMSTSQHVLSEFSKHNSPVYSAGEQRFRRSLPSSASFSSCTSSGSAVAATKCVWDAAAYRVATRAPEVQAVLESHPLRHCAFEYKFVLWYPPNGEIAVPYVPTTAGEEVPITYAGDSEVLNEESEGGARRRSWRKWLFPPSPSRCPAPPGPSESIVWEGFGPDSNRKFCFDPFDVVVDVNELGDLECLYICRIAHFRDPRAGGVGEYDLTTRFYNSVKSECRMHYSTIFPRFFVGSCPRQLKHIRHLKEELKVTCVVNLQTEQDLCNNYPDPIASSRSAEAVSQLYDGSGLRYVWLPTADMCDSARKIAVANAAFLLLGLFQSGHSVYMHCNAGVGRSVAAACAFLCFAVGLDLRKVNFLICARRPVAYWDEKAMKYGIGDYQAKFGHCRVVGEEAEERQHA
notes: TgLaforin, Toxoplasma gondii glucan phosphatase, ToxoDB TGME49_205290, 523 amino acids; N-terminal split CBM20 followed by a DSP domain; predicted recombinant monomer 61.5 kDa; also called T. gondii laforin; full-length TgLaforin; source: Sf9 insect cells (baculovirus), purified (Ni-agarose, SEC) to >95% homogeneity
B1 was tested, and the “stoichiometry N” value was 2.
